Assay results from patent US20250043022A1 (JIANGSU HENGRUI PHARMACEUTICALS, published 2025).
Where a chain is given by its changes, count along the chain named. Blank lines part the entries; values can stand above or below the binder they belong to.

How the values were obtained:
[1] = target: T1, human PSMA on cells (Cho-hPSMA, CHO-K1 cells overexpressing full-length human PSMA) (human, UniProt Q04609 1-750); assay: flow cytometry, Cho-hPSMA; antibody at 4 µg/mL
T1 construct: whole, on cells; also called cell surface PSMA; PSMA-expressing Lncap cells

[2] = target: T2, human PSMA antigen (Acro, Cat. No. PSA-H52H3; Lys44-Ala750) (human, UniProt Q04609 44-750); assay: SPR (Biacore T200, 25 C), antibody captured on Protein A, 1:1 model
T2 construct: range 44-750
Procedure: Experiment 5: Antibodies were affinity-captured using a Protein A biosensor chip, and human PSMA was then allowed to flow over the chip surface. The association and dissociation curves were obtained by real-time detection of reaction signals using a Biacore T200 instrument at 25° C. After the dissociation in each experimental cycle was complete, the biosensor chip was regenerated by washing with Glycine 1.5. Data fitting was performed using a 1:1 Model. The human PSMA antigen was purchased from Acro (Cat. No. PSA-H52H3; Lys44-Ala750), and the hCD3D&CD3E complex antigen was purchased from Sino Biological (Cat. No. CT038-H2508H).

[3] = target: T1, human PSMA on cells (Cho-hPSMA, CHO-K1 …); assay: flow cytometry, Cho-hPSMA; antibody at 100 µg/mL
[4] = target: T1, human PSMA on cells (Cho-hPSMA, CHO-K1 …); assay: flow cytometry, Cho-hPSMA; antibody at 0.8 µg/mL
[5] = target: T1, human PSMA on cells (Cho-hPSMA, CHO-K1 …); assay: flow cytometry, Cho-hPSMA; antibody at 20 µg/mL
[6] = target: T1, human PSMA on cells (Cho-hPSMA, CHO-K1 …); assay: cell ELISA, Cho-hPSMA; antibody at 6.25 nM
Procedure: (§1) Experiment 2: Cells were cultured and inoculated onto a cell plate using the same method as in Experiment 1. The antibodies were serially diluted, and the antibody solutions were added to the cell plate at 100 μL/well. The plate was incubated at 4° C. for 1 h and then washed. An HRP-Goat Anti-human IgG (H+L) secondary antibody dilution (1:8000) was added to the cell plate at 100 μL/well, and the plate was incubated at 4° C. for 1 h and then washed by centrifugation. After color development with TMB, the reaction was stopped with 0.1 M sulfuric acid, and OD450 values were measured.
(§2) Experiment 4: The binding activity of bispecific antibodies was measured using the method of experiment 2.

[7] = target: T1, human PSMA on cells (Cho-hPSMA, CHO-K1 …); assay: cell ELISA, Cho-hPSMA; antibody at 25 nM
Procedure: as §1, §2

[8] = target: T1, human PSMA on cells (Cho-hPSMA, CHO-K1 …); assay: cell ELISA, Cho-hPSMA; antibody at 1.5625 nM
Procedure: as §1, §2

[9] = target: T1, human PSMA on cells (Cho-hPSMA, CHO-K1 …); assay: cell-based or functional assay
[10] = target: T1, human PSMA on cells (Cho-hPSMA, CHO-K1 …); assay: flow cytometry, Cho-hPSMA; antibody at 0.8 nM
Procedure: (§3) Experiment 1: Cho-hPSMA was cultured in F12 medium with 10% FBS. The medium to which cells were inoculated was incubated in a 37° C., 5% CO₂ incubator for 2 days, and cells were added to a cell plate at 1×10⁵ cells/well and washed by centrifugation. Antibodies were serially diluted, and the antibody solutions were added to the cell plate at 100 μL/well. The plate was incubated at 4° C. for 1 h and then washed. An AF488-Goat Anti-human IgG Fc fluorescent secondary antibody dilution (1:400) was added to the cell plate at 100 μL/well, and the plate was incubated at 4° C. for 1 h and then washed. PBS was added to the cell plate at 100 μL/well before plate reading.
(§4) Experiment 3: The binding activity of bispecific antibodies was measured using the method of experiment 1.

[11] = target: T1, human PSMA on cells (Cho-hPSMA, CHO-K1 …); assay: flow cytometry, Cho-hPSMA; antibody at 4 nM
Procedure: as §3, §4

[12] = target: T1, human PSMA on cells (Cho-hPSMA, CHO-K1 …); assay: flow cytometry, Cho-hPSMA; antibody at 100 nM
Procedure: as §3, §4

[13] = target: T1, human PSMA on cells (Cho-hPSMA, CHO-K1 …); assay: flow cytometry, Cho-hPSMA; antibody at 20 nM
Procedure: as §3, §4

T1 sequence (Q04609 whole entry): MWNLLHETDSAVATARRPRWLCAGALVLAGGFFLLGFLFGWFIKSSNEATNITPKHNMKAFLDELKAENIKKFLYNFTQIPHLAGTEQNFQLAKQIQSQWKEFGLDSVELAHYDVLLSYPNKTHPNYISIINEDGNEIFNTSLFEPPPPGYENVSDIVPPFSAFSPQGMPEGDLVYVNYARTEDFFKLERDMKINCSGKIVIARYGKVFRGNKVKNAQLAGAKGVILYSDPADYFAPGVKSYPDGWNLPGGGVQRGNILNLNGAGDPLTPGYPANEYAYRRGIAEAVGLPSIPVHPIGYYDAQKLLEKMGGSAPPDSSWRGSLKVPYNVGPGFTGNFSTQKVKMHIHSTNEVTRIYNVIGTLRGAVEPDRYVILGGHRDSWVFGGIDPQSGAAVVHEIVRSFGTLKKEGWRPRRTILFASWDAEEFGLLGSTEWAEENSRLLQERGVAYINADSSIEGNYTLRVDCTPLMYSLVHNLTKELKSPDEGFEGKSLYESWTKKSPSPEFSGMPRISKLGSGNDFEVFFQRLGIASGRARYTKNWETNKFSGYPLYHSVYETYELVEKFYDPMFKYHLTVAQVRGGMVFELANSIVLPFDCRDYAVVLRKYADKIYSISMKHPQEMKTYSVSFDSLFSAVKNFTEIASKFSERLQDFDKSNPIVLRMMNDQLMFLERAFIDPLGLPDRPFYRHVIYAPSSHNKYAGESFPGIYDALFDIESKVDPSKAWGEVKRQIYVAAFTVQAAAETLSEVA
T2 sequence (Q04609 44-750 limits assumed): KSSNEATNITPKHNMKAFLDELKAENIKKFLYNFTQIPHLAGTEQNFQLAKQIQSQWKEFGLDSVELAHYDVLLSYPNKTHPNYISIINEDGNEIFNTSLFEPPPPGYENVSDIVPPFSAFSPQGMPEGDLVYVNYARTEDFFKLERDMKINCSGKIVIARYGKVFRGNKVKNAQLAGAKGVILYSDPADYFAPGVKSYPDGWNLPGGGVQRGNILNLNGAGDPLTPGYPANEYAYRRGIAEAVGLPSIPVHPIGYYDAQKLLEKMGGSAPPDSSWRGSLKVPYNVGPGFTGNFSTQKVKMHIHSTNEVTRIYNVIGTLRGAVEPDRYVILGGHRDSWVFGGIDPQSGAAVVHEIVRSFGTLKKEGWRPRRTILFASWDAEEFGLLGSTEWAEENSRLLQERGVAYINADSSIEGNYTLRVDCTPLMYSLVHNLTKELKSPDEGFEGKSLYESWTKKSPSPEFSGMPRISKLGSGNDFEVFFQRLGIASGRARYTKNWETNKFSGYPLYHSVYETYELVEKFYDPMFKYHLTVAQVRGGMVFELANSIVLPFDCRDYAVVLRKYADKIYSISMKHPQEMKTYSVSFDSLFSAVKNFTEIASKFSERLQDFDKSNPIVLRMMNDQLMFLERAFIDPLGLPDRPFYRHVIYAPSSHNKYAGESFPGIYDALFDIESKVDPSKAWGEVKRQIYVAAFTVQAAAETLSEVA

B1: 31-F1 (bispecific antibody)
heavy 1: not shown
light 1: DIQMTQSPSSLSASVGDRVTITCRASGNIHNYLAWYQQKPGKAPKLLIYNAETLADGVPSRFSGSGSGTDFTLTISSLQPEDFATYYCQHFWSTPPTFGGGTKVEIKRTVAAPSVFIFPPSDEQLKSGTASVVCLLNNFYPREAKVQWKVDNALQSGNSQESVTEQDSKDSTYSLSSTLTLSKADYEKHKVYACEVTHQGLSSPVTKSFNRGEC
heavy 2: not shown
light 2: not shown
notes: PSMA x CD3, Format 1
fluorescence intensity [1]: 7970
Kd [2]: 1860 pM
koff [2]: 1.84e-05 s⁻¹
kon [2]: 9890 M⁻¹ s⁻¹
fluorescence intensity [3]: 16500
fluorescence intensity [4]: 2520
fluorescence intensity [5]: 16200

B2: 27-F4 (bispecific antibody)
heavy: not shown
light: QIVLTQSPDFQSVTPKEKVTIQCSASSSVSYMYWYQQKPDQSPKPWIYRTSNLASGVPSRFSGSGSGTDYTLTINSLEAEDAATYYCQQYHSYPLTFGQGTKLEIKRTVAAPSVFIFPPSDEQLKSGTASVVCLLNNFYPREAKVQWKVDNALQSGNSQESVTEQDSKDSTYSLSSTLTLSKADYEKHKVYACEVTHQGLSSPVTKSFNRGEC
notes: PSMA x CD3, Format 4
absorbance [6]: 0.732 OD450
absorbance [7]: 1.05 OD450
absorbance [8]: 0.419 OD450

B4: 43-F4 (bispecific antibody)
heavy: not shown
light: DIQMTQSPSSLSASVGDRVTITCKASQNVHTSVAWYQQKPGKSPKLLIYSASNRYSGVPSRFSGSGSGTDFTLTISSLQPEDVATYYCQQYSSYPLTFGQGTKLEIKRTVAAPSVFIFPPSDEQLKSGTASVVCLLNNFYPREAKVQWKVDNALQSGNSQESVTEQDSKDSTYSLSSTLTLSKADYEKHKVYACEVTHQGLSSPVTKSFNRGEC
notes: PSMA x CD3, Format 4
cytotoxic activity against Lncap, EC50 [9]: 6.21 pM
cytotoxic activity against Lncap, Maximum lysis rate % [9]: 48%
absorbance [6]: 0.527 OD450
absorbance [7]: 1.04 OD450
absorbance [8]: 0.254 OD450

B6: 43-F3 (bispecific antibody)
heavy: not shown
light 1: B4 light
light 2: not shown
notes: PSMA x CD3, Format 3
cytotoxic activity against Lncap, EC50 [9]: 7.39 pM
cytotoxic activity against Lncap, Maximum lysis rate % [9]: 49.5%
absorbance [6]: 0.441 OD450
absorbance [7]: 0.721 OD450
absorbance [8]: 0.227 OD450

Second part, led by results:

fluorescence intensity [10]: 9490
fluorescence intensity [11]: 18700
fluorescence intensity [12]: 21300
fluorescence intensity [13]: 20800
B3: 46-F4 (bispecific antibody)
heavy: not shown
light: DIQMTQSPSSLSASVGDRVTITCKASQSVGTAVAWYQQKPGKAPKLLIYSASSRYTGVPSRFSGSGSGTDFTLTISSLQPEDFADYFCHQYSSYPLTFGGGTKVEIKRTVAAPSVFIFPPSDEQLKSGTASVVCLLNNFYPREAKVQWKVDNALQSGNSQESVTEQDSKDSTYSLSSTLTLSKADYEKHKVYACEVTHQGLSSPVTKSFNRGEC
notes: PSMA x CD3, Format 4
cytotoxic activity against Lncap, EC50 [9]: 2.85 pM
cytotoxic activity against Lncap, Maximum lysis rate % [9]: 63.5%

fluorescence intensity [10]: 8280
fluorescence intensity [11]: 22000
fluorescence intensity [12]: 32200
fluorescence intensity [13]: 31400
B5: 15-F4 (bispecific antibody)
heavy: not shown
light: B4 light with N28G, H30D, S32A, S50W, N53T, Y55H, S56T, S60D, S93R
notes: PSMA x CD3, Format 4
cytotoxic activity against Lncap, EC50 [9]: 9.63 pM
cytotoxic activity against Lncap, Maximum lysis rate % [9]: 63.2%
